Data on nine molecules can be found in publication PMC10193013, “Nonstructural N- and C-tails of Dbp2 confer the protein full helicase activities” (The Journal of Biological Chemistry, 2023).

Values joined by “and” are separate entries in the source; they are usually repeats but may differ in a detail not shown here. Equal entries are not always repeated.

Series [1] concerns the target T1, Dbp2 (full-length, Dbp2^1-546) (Saccharomyces cerevisiae, UniProt P24783, C168A/C206A/C219A).
T1 construct: full-length 1-546; E. coli C2566H; His6-MBP tag cleaved with TEV, SP ion exchange; the smFRET mutant C141/C373 carries a C-terminal His6 tag
The series is classed as binding. The conditions noted are these: labelled protein immobilised via C-terminal His-tag antibody; no RNA; MgCl2 2 mM, pH 7.5.

The target of series [2] is T2, Dbp2 (full-length, Dbp2^1-546) (Saccharomyces cerevisiae, UniProt P24783).
T2 construct: full-length 1-546; E. coli C2566H; His6-MBP tag cleaved with TEV, SP ion exchange; the smFRET mutant C141/C373 carries a C-terminal His6 tag
Kind of series: coupled spectrophotometric ATPase assay. The series is classed as biochemical. Conditions: RNA-dependent: ssRNA R-S22 or RNA/DNA duplex R/D-D16; MgCl2 2 mM, ATP 1.5 mM, pH 7.5, 24 °C; turnover only.

In series [3] the target is T3, Dbp2 (full-length, Dbp2^1-546) (Saccharomyces cerevisiae, UniProt P24783, R495A/R496A).
T3 construct: full-length 1-546; E. coli C2566H; His6-MBP tag cleaved with TEV, SP ion exchange; the smFRET mutant C141/C373 carries a C-terminal His6 tag
The series is described as follows: ATPase activity assay kit (free phosphate, […] nm). The series is classed as biochemical. Conditions: 16 bp RNA/DNA duplex 0.75 μM; MgCl2 2 mM, ATP 1.5 mM, pH 7.5, 24 °C; turnover only.

A further series deals with Dbp2 1-514 (Saccharomyces cerevisiae, UniProt P24783 1-514). The series is described as follows: fluorescence anisotropy; Anisotropy: 25 mM Tris-HCl pH 7.5, 20 mM NaCl/30 mM KCl, 2 mM MgCl2, 1 mM DTT, 5 nM labelled nucleic acid, 25 C, 5 min; EMSA: 25 mM Tris-HCl pH 7.5, 30 mM KCl. Conditions: protein: recombinant, tags: His6-MBP removed by TEV, label: 3' FAM. (In general: Fluorescence polarisation rises when a labelled molecule tumbles more slowly, as on binding a larger partner.)

For the next series, the target named is Dbp2 1-530 (Saccharomyces cerevisiae, UniProt P24783 1-530). Described as above. Conditions: protein: recombinant, tags: His6-MBP removed by TEV, label: 3' FAM.
A further series addresses Dbp2 118-466 (Saccharomyces cerevisiae, UniProt P24783 118-466). Described as above. Conditions: protein: recombinant, label: 3' FAM.
The target of another series is Dbp2 WT (Saccharomyces cerevisiae, UniProt P24783 1-546). The series is described as above. The conditions noted are these: protein: recombinant, tags: His6-MBP removed by TEV.
Another series addresses Dbp2 1-524 (Saccharomyces cerevisiae, UniProt P24783 1-524). The series is described as above. The conditions noted are these: protein: recombinant, tags: His6-MBP removed by TEV, label: 3' FAM.
The target in another series is Dbp2 53-496 (Saccharomyces cerevisiae, UniProt P24783 53-496). The description is as above. The conditions noted are these: protein: recombinant, tags: His6-MBP removed by TEV, label: 3' FAM.
A further series has as its target T4, MBP-Dbp2 497-546 (Saccharomyces cerevisiae, UniProt P24783 497-546).
T4 chain: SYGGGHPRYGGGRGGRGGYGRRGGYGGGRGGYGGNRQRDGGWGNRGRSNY
The series is described as above. The conditions noted are these: protein: recombinant; tags: MBP fusion; label: 3' FAM; G4.

For another series, the target named is Dbp2 53-546 (Saccharomyces cerevisiae, UniProt P24783 53-546). Described as above. Conditions: protein: recombinant; tags: His6-MBP removed by TEV; label: 3' FAM; G4.
The next series deals with T5, MBP-Dbp2 1-52 (Saccharomyces cerevisiae, UniProt P24783 1-52).
T5 sequence: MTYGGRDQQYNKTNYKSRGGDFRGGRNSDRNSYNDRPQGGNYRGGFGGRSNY
Described as above. The conditions noted are these: protein: recombinant; tags: MBP fusion; label: 3' FAM; G4.

Where [4] appears, read: label: 3' FAM on DNA strand, blunt.

Chain of Dbp2 WT (P24783 whole entry): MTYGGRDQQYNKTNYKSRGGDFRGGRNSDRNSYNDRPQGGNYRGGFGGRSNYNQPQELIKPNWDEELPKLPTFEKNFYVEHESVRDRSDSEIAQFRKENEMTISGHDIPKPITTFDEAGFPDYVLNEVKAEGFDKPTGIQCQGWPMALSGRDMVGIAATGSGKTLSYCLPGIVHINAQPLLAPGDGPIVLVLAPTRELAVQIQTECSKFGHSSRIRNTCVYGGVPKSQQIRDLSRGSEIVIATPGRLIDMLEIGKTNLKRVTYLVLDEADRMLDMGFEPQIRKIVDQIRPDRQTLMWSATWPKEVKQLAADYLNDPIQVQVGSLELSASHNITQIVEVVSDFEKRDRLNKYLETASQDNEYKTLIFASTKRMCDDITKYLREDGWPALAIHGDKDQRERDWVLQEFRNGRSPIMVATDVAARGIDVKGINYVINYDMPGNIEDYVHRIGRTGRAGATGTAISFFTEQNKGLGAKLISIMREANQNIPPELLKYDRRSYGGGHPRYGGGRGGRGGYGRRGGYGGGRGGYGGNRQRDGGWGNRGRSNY
Chain of Dbp2 118-466 (P24783 118-466): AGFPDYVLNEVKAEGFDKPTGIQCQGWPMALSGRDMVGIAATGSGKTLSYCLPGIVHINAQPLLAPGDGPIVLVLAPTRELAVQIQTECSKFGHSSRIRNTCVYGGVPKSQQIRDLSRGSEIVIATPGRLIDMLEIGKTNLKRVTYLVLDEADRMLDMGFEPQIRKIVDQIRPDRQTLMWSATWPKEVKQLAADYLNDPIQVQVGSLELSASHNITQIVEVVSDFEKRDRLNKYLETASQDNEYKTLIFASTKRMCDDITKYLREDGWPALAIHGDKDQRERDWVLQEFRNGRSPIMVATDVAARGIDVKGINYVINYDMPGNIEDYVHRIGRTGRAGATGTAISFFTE
Chain of Dbp2 1-514 (P24783 1-514): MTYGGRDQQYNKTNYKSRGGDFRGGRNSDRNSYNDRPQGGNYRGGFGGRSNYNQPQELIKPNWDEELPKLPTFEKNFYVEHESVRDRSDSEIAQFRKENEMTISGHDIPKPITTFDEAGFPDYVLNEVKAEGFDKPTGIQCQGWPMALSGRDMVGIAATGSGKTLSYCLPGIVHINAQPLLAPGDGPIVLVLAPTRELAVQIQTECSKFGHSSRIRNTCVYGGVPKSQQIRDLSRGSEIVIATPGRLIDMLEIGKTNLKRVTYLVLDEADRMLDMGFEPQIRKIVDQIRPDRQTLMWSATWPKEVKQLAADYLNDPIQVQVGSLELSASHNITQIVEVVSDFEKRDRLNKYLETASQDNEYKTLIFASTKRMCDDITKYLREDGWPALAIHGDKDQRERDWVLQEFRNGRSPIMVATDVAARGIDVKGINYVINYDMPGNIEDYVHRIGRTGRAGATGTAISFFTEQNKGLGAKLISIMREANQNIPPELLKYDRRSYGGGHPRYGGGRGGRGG
Chain of Dbp2 53-496 (P24783 53-496): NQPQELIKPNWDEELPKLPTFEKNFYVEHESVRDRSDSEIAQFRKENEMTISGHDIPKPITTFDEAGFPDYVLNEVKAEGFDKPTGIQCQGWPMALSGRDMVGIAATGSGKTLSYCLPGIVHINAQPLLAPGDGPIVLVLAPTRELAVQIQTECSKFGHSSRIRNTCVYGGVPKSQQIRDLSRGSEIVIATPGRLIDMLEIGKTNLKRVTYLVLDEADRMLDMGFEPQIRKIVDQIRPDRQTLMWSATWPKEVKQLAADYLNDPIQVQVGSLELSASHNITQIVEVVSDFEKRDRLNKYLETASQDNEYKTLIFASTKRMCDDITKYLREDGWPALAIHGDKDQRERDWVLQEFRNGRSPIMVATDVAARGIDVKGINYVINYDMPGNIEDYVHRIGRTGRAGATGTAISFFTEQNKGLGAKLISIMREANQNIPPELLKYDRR
T1 sequence (P24783 whole entry C168A/C206A/C219A): as the sequence (P24783 whole entry) above, with C168A, C206A, C219A counted along it
Chain of Dbp2 53-546 (P24783 53-546): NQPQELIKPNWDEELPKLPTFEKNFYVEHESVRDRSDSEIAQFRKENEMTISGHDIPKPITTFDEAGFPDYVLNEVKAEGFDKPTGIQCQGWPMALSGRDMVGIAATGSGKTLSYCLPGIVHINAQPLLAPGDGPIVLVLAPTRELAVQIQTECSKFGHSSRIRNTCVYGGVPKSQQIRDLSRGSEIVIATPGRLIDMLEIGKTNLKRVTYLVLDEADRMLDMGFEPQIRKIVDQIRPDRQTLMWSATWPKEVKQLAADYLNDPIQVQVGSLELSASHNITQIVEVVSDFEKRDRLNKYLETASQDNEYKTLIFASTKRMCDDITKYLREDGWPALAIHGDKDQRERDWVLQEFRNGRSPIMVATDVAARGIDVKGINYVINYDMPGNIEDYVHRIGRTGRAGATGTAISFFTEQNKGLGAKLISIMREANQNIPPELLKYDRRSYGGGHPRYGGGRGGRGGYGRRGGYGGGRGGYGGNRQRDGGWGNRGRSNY
T3 sequence (P24783 whole entry R495A/R496A): as the sequence (P24783 whole entry) above, with R495A, R496A counted along it

As to `Nc1ncnc2c1ncn2[C@@H]1O[C@H](COP(=O)(O)OP(=O)(O)O)[C@@H](O)[C@H]1O` [ADP], the “single-molecule FRET, Cy3/Cy5 on C141 and C373” value in series [1] is recorded as “The FRET distribution of Dbp2-ADP was similar to that of Dbp2-ADP·AlF4 except for a decrease”.

As for `Nc1ncnc2c1ncn2[C@@H]1O[C@H](COP(=O)(O)OP(=O)(O)OP(=O)(O)O)[C@@H](O)[C@H]1O` [ATP], in series [2], the “coupled spectrophotometric ATPase assay” value is listed as “The RNA-dependent ATPase activities of Dbp2 were measured using a coupled spectrophotometric ATPase assay”. The “ATPase activity assay kit (free phosphate, 620 nm)” value in [3] is given as “the R495A/R496A double mutant also showed increased ATPase activity in vitro”.

As to UUUUUUUUUUCUCUGCUCGACG (ssRNA) [R-S22], the Kd with Dbp2 1-514 amounted to 214 ± 18.4 nM; with Dbp2 1-530, 33.7 ± 6.63 nM; with Dbp2 WT (label: 3' FAM), 15.8 ± 0.66 nM; with Dbp2 1-524 it was 38.8 ± 4.35 nM. Further, the binding result in the series with Dbp2 118-466 and with Dbp2 53-496 was “no binding” throughout.

CUCUGCUCGACG (ssRNA) [R-S12]: the Kd with Dbp2 WT (label: 3' FAM) came out at 72.1 ± 5.09 nM.

B1: D-D12 (dsDNA)
DNA 1: CGTCGAGCAGAG
DNA 2: CTCTGCTCGACG
With B1, the Kd in the series with Dbp2 WT (label: 3' FAM on strand 2, blunt) was 178 ± 6.2 nM.

For ACGGATGTCTAA (ssDNA) [D-S12], in the series with Dbp2 WT (label: 3' FAM), the Kd amounted to 105 ± 1.9 nM.

B2: R/D-D16 (DNA:RNA)
RNA: GAUCGUGACAUCCUUA
DNA: TAAGGATGTCACGATC
As for B2, the Kd with Dbp2 WT (setting [4]) stood at 40.6 ± 4.65 nM.

B3: R/D-D12 (DNA:RNA)
RNA: CGUCGAGCAGAG
DNA: CTCTGCTCGACG
Consider B3, for which, in the series with Dbp2 WT (setting [4]), the Kd was 73.9 ± 3.93 nM.

Regarding GGGUUAGGGUUAGGGUUAGGG (structured_RNA) [R-G4Tel], the Kd in the series with MBP-Dbp2 497-546 was 36.3 ± 5.1 nM; with Dbp2 1-514 (G4), 63.5 ± 8.45 nM; with Dbp2 1-530 (G4), 19.2 ± 2.17 nM; with Dbp2 WT (label: 3' FAM, G4), 12.2 nM and 12.7 nM; with Dbp2 1-524 (G4), 27.9 ± 2.66 nM; with Dbp2 53-546, 18.8 ± 0.56 nM. The Kd with MBP-Dbp2 1-52 is 26 ± 1.5 nM. Further, the binding result in the series with Dbp2 118-466 (G4) and with Dbp2 53-496 (G4) was “no binding” throughout.

Usually Kd stands for a measure of binding affinity in units of concentration.
